Patent US20170355757A1 (Regeneron, published 2017)

Experiments:
human C5 [1] = target: T1, human C5 (human, UniProt P01031 19-1676); test: cell-based or functional assay
African green monkey C5 [2] = target: T2, African green monkey C5 (African green monkey); test: cell-based or functional assay
human C5 R885H-mmh = human C5 R885H-mmh (human, UniProt P01031 19-1676); test: cell-based or functional assay
human C5 R885C-mmh = human C5 R885C-mmh (human, UniProt P01031 19-1676); test: cell-based or functional assay
human C5 [3] = target: T1, human C5; test: cell-based or functional assay; remark: listed apart in the source
African green monkey C5 [4] = target: T2, African green monkey C5; test: cell-based or functional assay; remark: listed apart in the source
Cynomolgus monkey C5 = Cynomolgus monkey C5 (cynomolgus monkey, UniProt A0A2K5U1T1 19-1676); test: cell-based or functional assay
human C5 [5] = target: T1, human C5; test: SPR (Biacore), mAb captured, dissociation of human C5 at pH7.4 vs pH6.0, 37°C
Description: Effect of pH on the rate of dissociation of recombinant human C5 bound to purified anti-C5 monoclonal antibodies was determined using a real-time surface plasmon resonance biosensor using a Biacore T200 instrument. The Biacore sensor surface was first derivatized by amine coupling with a monoclonal mouse anti-human Fc antibody (GE, # BR-1008-39) to capture anti-C5 monoclonal antibodies expressed with human IgG4 Fc. All Biacore binding studies were performed using two running buffers PBS-T, pH7.4 (0.01M Na₂HPO₄/NaH₂PO₄, 0.15M NaCl, 0.05% v/v Tween-20, adjusted to pH7.4) and PBS-T, pH6.0 (0.01M Na₂HPO₄/NaH₂PO₄, 0.15M NaCl, 0.05% v/v Tween-20, adjusted to pH6.0). […] Binding dissociative half-lives (t %) were calculated from kd as: […]

monkey C5-mmh [6] = target: T3, monkey C5-mmh (monkey, UniProt P01031 19-1676 (human entry), limits assumed); test: SPR (Biacore), mAb captured, dissociation of monkey C5 at pH7.4 vs pH6.0, 25°C
T3 construct: recombinant, with C-terminal myc-myc-hexahistidine tag
T3 chain: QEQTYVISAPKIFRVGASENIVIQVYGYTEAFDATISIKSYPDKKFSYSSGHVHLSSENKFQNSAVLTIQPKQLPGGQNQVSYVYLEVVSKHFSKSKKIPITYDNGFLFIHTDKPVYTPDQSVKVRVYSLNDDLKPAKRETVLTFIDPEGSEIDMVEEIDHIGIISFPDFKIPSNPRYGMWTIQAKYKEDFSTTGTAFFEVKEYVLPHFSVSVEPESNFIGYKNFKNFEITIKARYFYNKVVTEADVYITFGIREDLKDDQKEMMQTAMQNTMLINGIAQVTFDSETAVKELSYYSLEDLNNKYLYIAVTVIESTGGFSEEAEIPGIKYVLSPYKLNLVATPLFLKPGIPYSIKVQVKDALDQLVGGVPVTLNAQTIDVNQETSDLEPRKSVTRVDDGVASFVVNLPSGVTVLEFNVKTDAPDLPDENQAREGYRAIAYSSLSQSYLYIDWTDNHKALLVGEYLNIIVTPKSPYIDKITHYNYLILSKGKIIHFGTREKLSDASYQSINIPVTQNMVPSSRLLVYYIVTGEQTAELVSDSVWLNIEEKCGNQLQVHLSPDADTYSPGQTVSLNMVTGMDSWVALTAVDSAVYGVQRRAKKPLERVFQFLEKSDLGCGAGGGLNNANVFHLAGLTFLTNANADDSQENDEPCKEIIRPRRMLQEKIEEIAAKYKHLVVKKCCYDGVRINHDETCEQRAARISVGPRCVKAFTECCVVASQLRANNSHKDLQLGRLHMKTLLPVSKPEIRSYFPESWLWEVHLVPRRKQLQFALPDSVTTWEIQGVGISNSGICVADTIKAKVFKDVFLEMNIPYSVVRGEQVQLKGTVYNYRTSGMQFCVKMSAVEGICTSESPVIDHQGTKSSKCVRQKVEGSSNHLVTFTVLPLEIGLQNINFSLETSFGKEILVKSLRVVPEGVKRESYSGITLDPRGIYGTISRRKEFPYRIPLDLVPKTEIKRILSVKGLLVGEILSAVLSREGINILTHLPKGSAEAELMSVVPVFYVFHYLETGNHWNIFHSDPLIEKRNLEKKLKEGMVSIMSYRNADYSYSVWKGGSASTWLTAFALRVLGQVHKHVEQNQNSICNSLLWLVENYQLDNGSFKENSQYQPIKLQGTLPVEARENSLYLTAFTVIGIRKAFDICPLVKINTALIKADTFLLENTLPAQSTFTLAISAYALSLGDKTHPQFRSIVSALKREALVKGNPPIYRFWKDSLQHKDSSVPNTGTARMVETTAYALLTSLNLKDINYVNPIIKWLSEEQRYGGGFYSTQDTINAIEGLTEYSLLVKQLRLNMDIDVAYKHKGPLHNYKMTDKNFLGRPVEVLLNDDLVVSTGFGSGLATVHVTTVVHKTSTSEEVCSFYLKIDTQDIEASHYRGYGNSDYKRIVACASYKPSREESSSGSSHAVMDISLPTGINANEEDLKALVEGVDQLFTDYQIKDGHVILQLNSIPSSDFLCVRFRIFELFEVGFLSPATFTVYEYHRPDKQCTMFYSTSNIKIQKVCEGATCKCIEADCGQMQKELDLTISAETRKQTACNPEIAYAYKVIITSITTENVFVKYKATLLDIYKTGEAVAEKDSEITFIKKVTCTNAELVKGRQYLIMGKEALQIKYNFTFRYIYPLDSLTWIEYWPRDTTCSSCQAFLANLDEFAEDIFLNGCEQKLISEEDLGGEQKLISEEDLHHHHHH

monkey C5-mmh [7] = target: T3, monkey C5-mmh; test: SPR (Biacore), mAb captured, dissociation of monkey C5 at pH7.4 vs pH6.0, 37°C

Binder | IC50, inhibition of CDC of Daudi cells, 1.66% human serum (human C5 [1]) [nM] | IC50, inhibition of CDC of Daudi cells, 1.66% African Green monkey serum (African green monkey C5 [2]) [nM] | IC50, inhibition of CDC of Daudi cells, C5 depleted human serum and 6.6 nM C5 Variant R885H (human C5 R885H-mmh) [nM] | IC50, inhibition of CDC of Daudi cells, C5 depleted human serum and 6.6 nM C5 Variant R885C (human C5 R885C-mmh) [nM] | Human AP % Max Inhibition, hemolysis assay, NHS (human C5 [3]) [%] | Human AP IC50, hemolysis assay, NHS (human C5 [3]) [nM] | Human CP % Max Inhibition, hemolysis assay, NHS (human C5 [3]) [%] | Human CP IC50, hemolysis assay, NHS (human C5 [3]) [nM] | AGM AP % Max Inhibition, hemolysis assay, 5% serum (African green monkey C5 [4]) [%] | AGM CP % Max Inhibition, hemolysis assay, 5% serum (African green monkey C5 [4]) [%] | AGM Serum AP IC50, hemolysis assay, 5% serum (African green monkey C5 [4]) [nM] | AGM Serum CP IC50, hemolysis assay, 5% serum (African green monkey C5 [4]) [nM] | Cyno AP % Max Inhibition, hemolysis assay, 5% serum (Cynomolgus monkey C5) [%] | Cyno CP % Max Inhibition, hemolysis assay, 5% serum (Cynomolgus monkey C5) [%] | Cyno Serum AP IC50, hemolysis assay, 5% serum (Cynomolgus monkey C5) [nM] | Cyno Serum CP IC50, hemolysis assay, 5% serum (Cynomolgus monkey C5) [nM] | t½ Ratio pH7.4/pH6.0 (human C5 [5]) | t½ Ratio pH7.4/pH6.0 (monkey C5-mmh [6]) | t½ Ratio pH7.4/pH6.0 (monkey C5-mmh [7])
H4H11686N (antibody, human IgG4, V domains shown, tested with H4H prefix (human IgG4 Fc with S108P hinge mutation); also called H2M11686N) VH: QVQLVESGGGLVKPGGSLRLSCAASGFTFSDYYMSWIRQAPGKGLEWVSYISSSGNTIKYADSMKGRFTISRDNAKKSLFVEMNSLRAEDTAVYYCARYKSSSDYFDHWGQGTLVTVSS VL: EIVLTQSPATLSLSPGERATLSCRASQSVRSYLAWYQQKPGQAPRLLIYDASNRATAIPARFSGSGSGTDFTLTISSLEPEDLAVYYCQQSGNWPLTFGGGTKVEIK | 1.5 | 4.4 | 1.1 | 0.45 | 76.2 | 13 | 97.4 | 3.09 | 50.4 | 49.3 | 163 | 48.2 | 98.7 | 94.5 | 9 | 14.1 | 0.8 | 0.37 | 0.5
H4H12168P (antibody, human IgG4, V domains shown, H4H: human IgG4 Fc with S108P hinge mutation) VH: QVQLVESGGGVVQPGGSLRLSCAASGFTFGGHAMHWVRQAPGKGLEWLAVISSDGSNKQYADSVKGRFTISRDNPKNTLYLQMNSLRVGDTAIYYCAKEVAPRYYYYGLDVWGQGTTVTVSS VL: DIQMTQSPSSLSASVGDRVTITCRASQDISNFLAWYQQKPGKVPKLLIYTASTLQSGVPSRFSGSGSGTDFTLTVSSLQPEDVATYYCQKYAGALTFGPGTKVDIK | 1.5 | 2 | 2.3 | 0.86 | 66.2 | 28.5 | 97.5 | 3.33 | 88.2 | 90.8 | 22.5 | 28 | 99.7 | 99 | 5.45 | 10.3 | 1 | 3.8 | 4
